US20250387484A1 (US Dept. of Health and Human Services, published 2025)
Where a chain is given by its changes, count along the chain named.

T1: human CD25 on KIT-225 cells (human, UniProt P01589 22-272)
T1 construct: whole, on cells; also called hCD25; IL-2Rα
T1 sequence (looked up): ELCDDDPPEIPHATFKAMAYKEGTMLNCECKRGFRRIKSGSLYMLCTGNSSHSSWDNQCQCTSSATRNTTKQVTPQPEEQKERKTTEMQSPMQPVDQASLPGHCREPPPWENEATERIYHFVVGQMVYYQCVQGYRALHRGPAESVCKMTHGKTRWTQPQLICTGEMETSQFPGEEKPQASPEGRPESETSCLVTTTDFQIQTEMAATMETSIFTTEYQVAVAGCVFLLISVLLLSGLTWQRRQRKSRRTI

T2: cynomolgus CD25 (cynomolgus, UniProt H6WS54 22-213)
T2 construct: Analyte in the SPR assay; also called CD25 (sIL-2 Receptor α)
T2 sequence: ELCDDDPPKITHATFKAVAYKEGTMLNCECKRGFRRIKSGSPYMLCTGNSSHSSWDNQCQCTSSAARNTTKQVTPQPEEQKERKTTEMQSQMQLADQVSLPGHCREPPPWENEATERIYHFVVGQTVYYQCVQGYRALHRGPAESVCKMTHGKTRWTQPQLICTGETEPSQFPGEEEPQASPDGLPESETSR

B1: antibody 14569 (antibody, human IgG4 S228P, kappa, V domains shown)
VH: EVQLVESGGGLVQPGGSLRLSCAASGYWFSSWGMSWVRQAPGKGLELVSTINGYGDTTYYPDSVKGRFTISRDNSKNTLYLQMNSLRAEDTAVYYCARDRDYSNSYYYAHDYWGQGTLVTVSS
VL: EIVLTQSPATLSLSPGERATLSCRASSYVSFMHWLQQKPGQAPRPWIYATMNLASGVPARFSGSGSGTDYTLTISSLEPEDFAVYYCQQWSSNPPAFGGGTKVEIKR
B2: antibody 14564 (antibody, human IgG4 S228P, kappa, V domains shown)
VH: B1 VH with Y27F, W28T
VL: B1 VL with M51A
B3: antibody 14572 (antibody, human IgG4 S228P, kappa, V domains shown)
VH: B1 VH with W32Y, S103T
VL: B1 VL

biological target: T1, human CD25 on KIT-225 cells; assay: flow cytometry (FACS) on CD25-expressing KIT-225 cells, secondary antibody, MFI against antibody concentration
Procedure: KIT-225 cells were washed once with FACS buffer, counted, and resuspended at a concentration of 1×10⁶/mL in FACS buffer. To 5 mL (5×10⁶ total) of cells, 25 μL of viable dye (Thermo Fisher, L34974, equivalent to 1:200 dilution) was added and mixed well. After incubation at 4° C. for 30 minutes, cells were washed twice with FACS buffer (200×g, 5 minutes each). Cells were resuspended in 5 mL FACS buffer and 100 μL was added per well, followed by addition of 100 μL diluted antibody. The solution was mixed by pipetting up and down and then incubated at 4° C. for 60 minutes, after which cells were washed twice with FACS buffer (200×g, 5 minutes each). Cells were resuspended in 100 μL FACS buffer. Fifty μL of secondary antibody was diluted in 5 mL FACS buffer (equivalent to 1:100 dilution), and 100 μL was added to each well and mixed by pipetting up and down. Following incubation at 4° C. for 30 minutes, cells were washed twice with FACS buffer (200×g, 5 minutes each), and resuspended in approximately 250 μL FACS buffer. FACS analysis was performed with Attune Flow cytometer using tube reading module.

Row | EC50 (read off the curve) | Binder
1 | ~0.5 µg/mL | B1
2 | ~0.6 µg/mL | B2
3 | ~0.4 µg/mL | B3

biological target: T2, cynomolgus CD25; assay: SPR, Biacore 8K, antibody captured on Protein A chip, cynomolgus CD25 as analyte, 25 C
Procedure: Running buffer was prepared by diluting one volume of 10× buffer with 9 volumes of degassed, filtered MilliQ water. Regeneration buffer (10 mM glycine) was prepared by dissolving glycine in MilliQ water and adjusting the pH to approximately 1.5-1.7. The assay was performed at 25° C. using HBS-EP+ as the running buffer. Antibodies were injected as capture on the Series S Sensor Chip Protein A. Antigens were diluted to multiple concentrations and injected over the surface of flow cell 1 and 2 as association phase, followed by injection of running buffer as dissociation phase.
All data were processed using the BIACORE™ 8K Evaluation software version 3.0. Flow cell 1 and blank injection of buffer in each cycle were used as double reference for Response Units (RU) subtraction. […] VH2+VL4 is a parental antibody (before affinity maturation).

Row | Kd | koff | kon | Binder
4 | 18.5 nM | 0.000714 s⁻¹ | 38500 M⁻¹ s⁻¹ | B1
5 | 17.4 nM | 0.000744 s⁻¹ | 42600 M⁻¹ s⁻¹ | B2
6 | 19.6 nM | 0.000679 s⁻¹ | 34700 M⁻¹ s⁻¹ | B3
